{"source": "patent US20030036091A1", "key": {"[1]": {"target": "Deinococcus radiodurans LuxS (Deinococcus radiodurans)", "test": "X-ray crystal structure, C2 form, crystallographic dimer interface"}, "[2]": {"target": "Deinococcus radiodurans LuxS (Deinococcus radiodurans)", "test": "X-ray crystal structure, P21 form, homodimer interface"}, "[3]": {"target": "Haemophilus influenzae LuxS (Haemophilus influenzae)", "test": "X-ray crystal structure, homodimer interface"}, "[4]": {"target": "Helicobacter pylori LuxS (Helicobacter pylori)", "test": "X-ray crystal structure, homodimer interface"}}, "data": [{"substance": "Deinococcus radiodurans LuxS (enzyme)", "values": [{"measurement": "surface area buried through this interaction", "setting": "[1]", "result": 3200, "unit": "Å^2"}, {"measurement": "surface area buried through this interaction", "setting": "[2]", "result": 3930, "unit": "Å^2"}]}, {"substance": "Haemophilus influenzae LuxS (enzyme)", "values": [{"measurement": "surface area buried through this interaction", "setting": "[3]", "result": 4160, "unit": "Å^2"}]}, {"substance": "Helicobacter pylori LuxS (enzyme)", "values": [{"measurement": "surface area buried through this interaction", "setting": "[4]", "result": 4180, "unit": "Å^2"}]}]}
